Measured values from the RNAGym collection of RNA variant scans (doi:10.7554/elife.80360).

B1: Hairpin Ribozyme (parent)
chain: GUCCUCUUUCACGUGCGCGUGAAAGAGAGAAGUGAACCAGAGAAACACACGUUGUGGUAUAUUACCUGGUA

Variants of: B1
Assay: self-cleavage, relative activity (ratio to wild type); higher = more cleavage; co-transcriptional

| Variant | self-cleavage |
| --- | --- |
| GUCCUCUUUCACGUGCGCGUGAAAGAGAGGAGAGAACCAGAGAAACACACGUUGUGGUAUAUUACCUGGUA [A30G U33A] | 0.0512 |
| GUCCUCUUUCACGUGCGCGUGAAAGAGAGGAGUGAACCAGAGAAACACACGUUUUGGUAUAUUACCUGGUA [A30G G54U] | 0.123 |
| GUCCUCUUUCACGUGCGCGUGAAAGAGAGGAGUGAACCGGAGAAACACACGUUGUGGUAUAUUACCUGGUA [A30G A39G] | 0.127 |
| GUCCUCUUUCACGUGCGCGUGAAAGAGAGGAGUGAACCCGAGAAACACACGUUGUGGUAUAUUACCUGGUA [A30G A39C] | 0.106 |
| GUCCUCUUUCACGUGCGCGUGAAAGAGAGGAGUGAACCAGCGAAACACACGUUGUGGUAUAUUACCUGGUA [A30G A41C] | 0.201 |
| GUCCUCUUUCACGUGCGCGUGAAAGAGAGGAGUGAACCAGAUAAACACACGUUGUGGUAUAUUACCUGGUA [A30G G42U] | 0.0793 |
| GUCCUCUUUCACGUGCGCGUGAAAGAGAGCAGUGAACCAGAGAAACACACGUAGUGGUAUAUUACCUGGUA [A30C U53A] | 0.0771 |
| GUCCUCUUUCACGUGCGCGUGAAAGAGAGUAGUGAACCAGAGAAACACACGUUGUGGUAUAUUACCUGGUG [A30U A71G] | 0.286 |
| GUCCUCUUUCACGUGCGCGUGAAAGAGAGUAGUGAACCAGAGAAACACGCGUUGUGGUAUAUUACCUGGUA [A30U A49G] | 0.2 |
| GUCCUCUUUCACGUGCGCGUGAAAGAGAGUAGUGAACCAGAGAAACACUCGUUGUGGUAUAUUACCUGGUA [A30U A49U] | 0.274 |
| GUCCUCUUUCACGUGCGCGUGAAAGAGAGGAGUGAAGCAGAGAAACACACGUUGUGGUAUAUUACCUGGUA [A30G C37G] | 0.0733 |
| GUCCUCUUUCACGUGCGCGUGAAAGAGAGUAGUGAACCAGAGAGACACACGUUGUGGUAUAUUACCUGGUA [A30U A44G] | 0.064 |
| GUCCUCUUUCACGUGCGCGUGAAAGAGAGUAGUGAACCAGAGACACACACGUUGUGGUAUAUUACCUGGUA [A30U A44C] | 0.0664 |
| GUCCUCUUUCACGUGCGCGUGAAAGAGAGGAGUGAACCAGAGAAACACACGUUGCGGUAUAUUACCUGGUA [A30G U55C] | 0.0826 |
| GUCCUCUUUCACGUGCGCGUGAAAGAGAGGAGUGAACCAGAGAAAGACACGUUGUGGUAUAUUACCUGGUA [A30G C46G] | 0.185 |
| GUCCUCUUUCACGUGCGCGUGAAAGAGAGGAGUGAACCAGAGAAACUCACGUUGUGGUAUAUUACCUGGUA [A30G A47U] | 0.131 |
| GUCCUCUUUCACGUGCGCGUGAAAGAGAGGAGUGAACCAGAGAAACACACGUUGUGGUAUAUUACCUGGUC [A30G A71C] | 0.217 |
| GUCCUCUUUCACGUGCGCGUGAAAGAGAGGAGUGAACCAGAGAAACACACGUUGUGGUAUAUUACCUGGUU [A30G A71U] | 0.225 |
| GUCCUCUUUCACGUGCGCGUGAAAGAGAGGAGUGAACCAGAGAACCACACGUUGUGGUAUAUUACCUGGUA [A30G A45C] | 0.267 |

| Variant | self-cleavage |
| --- | --- |
| GUCCUCUUUCACGUGCGCGUGAAAGAGAGGAGUGAACCACAGAAACACACGUUGUGGUAUAUUACCUGGUA [A30G G40C] | 0.131 |
| GUCCUCUUUCACGUGCGCGUGAAAGAGAGGAGUGAACCAGAGAAACACACGUUGUGGUAUAUUACUUGGUA [A30G C66U] | 0.1 |
| GUCCUCUUUCACGUGCGCGUGAAAGAGAGGAGUGAACCAGAGAUACACACGUUGUGGUAUAUUACCUGGUA [A30G A44U] | 0.227 |
| GUCCUCUUUCACGUGCGCGUGAAAGAGAGGAGUGAACCAGAGAAACACACGUUGUGCUAUAUUACCUGGUA [A30G G57C] | 0.0397 |
| GUCCUCUUUCACGUGCGCGUGAAAGAGAGUAGUGAACCAGUGAAACACACGUUGUGGUAUAUUACCUGGUA [A30U A41U] | 0.232 |
| GUCCUCUUUCACGUGCGCGUGAAAGAGAGCAGUGAACCAGAGAAACACACGUUGUGGUAUAUAACCUGGUA [A30C U63A] | 0.267 |
| GUCCUCUUUCACGUGCGCGUGAAAGAGAGCAGUGAACCAGAGAAACACACGUUGUGGUAUAUGACCUGGUA [A30C U63G] | 0 |
| GUCCUCUUUCACGUGCGCGUGAAAGAGAGCAGUGAACCAGAGAAACACACGUUGUGGUACAUUACCUGGUA [A30C U60C] | 0.279 |
| GUCCUCUUUCACGUGCGCGUGAAAGAGAGGAGUGAACCAGAGAAACACACGUUGUGGUCUAUUACCUGGUA [A30G A59C] | 0.0815 |
| GUCCUCUUUCACGUGCGCGUGAAAGAGAGGAGUGAACCAGAGAAACACACGUUGUGGUGUAUUACCUGGUA [A30G A59G] | 0.311 |
| GUCCUCUUUCACGUGCGCGUGAAAGAGAGGAGUGUACCAGAGAAACACACGUUGUGGUAUAUUACCUGGUA [A30G A35U] | 0.0439 |
| GUCCUCUUUCACGUGCGCGUGAAAGAGAGGAGUGCACCAGAGAAACACACGUUGUGGUAUAUUACCUGGUA [A30G A35C] | 0.141 |
| GUCCUCUUUCACGUGCGCGUGAAAGAGAGGAGUGGACCAGAGAAACACACGUUGUGGUAUAUUACCUGGUA [A30G A35G] | 0.125 |
| GUCCUCUUUCACGUGCGCGUGAAAGAGAGGAGUGAACCAGAGAAACACACGUUGUGGUAUAUUACCUGAUA [A30G G69A] | 0.12 |
| GUCCUCUUUCACGUGCGCGUGAAAGAGAGGAGUGAACCAGAGAAACACACGUUGUGGUAUAUUACCUGCUA [A30G G69C] | 0.0841 |
| GUCCUCUUUCACGUGCGCGUGAAAGAGAGGAGUGAACCAGAGAAACACACGUUGUGGUAUAUUACCAGGUA [A30G U67A] | 0.215 |
| GUCCUCUUUCACGUGCGCGUGAAAGAGAGUUGUGAACCAGAGAAACACACGUUGUGGUAUAUUACCUGGUA [A30U A31U] | 0.149 |
| GUCCUCUUUCACGUGCGCGUGAAAGAGAGGAGUGAACCAGAGAAACACACGGUGUGGUAUAUUACCUGGUA [A30G U52G] | 0.186 |
| GUCCUCUUUCACGUGCGCGUGAAAGAGAGGAGUGAACCAGAGAAACACACGUUGUCGUAUAUUACCUGGUA [A30G G56C] | 0.0815 |
